Biological target: MalE (MBP) (UniProt P0AEX9 27-396)
Experiment: EMSA; EMSA: 50 mM Tris-HCl pH 7.4, 50 mM KCl, 2 mM MgCl2, 100 ng poly(dI-dC), 0.5 ug BSA, 0.01 pmol probe, 4 C 30 min; DAPA: 10 mM Tris-HCl pH 7.6, 60 mM KCl, 5% glyc

B1: VicR box probe (dsDNA)
DNA 1: CTAATATGTAAATGTTGCAAAATTTCTGAA
DNA 2: TTCAGAAATTTTGCAACATTTACATATTAG
binding result: no binding

Source: paper PMC4888889, “Role of VicRKX and GlnR in pH-Dependent Regulation of the Streptococcus salivarius 57.I Urease Operon”
